Results as given in patent US20260035464A1 (STAIDSON BIOPHARMA, published 2026).

Assays:
[1] = biological target: T1, human BTLA (Uniprot Q7Z6A9) expressed on cells (human, UniProt Q7Z6A9 31-289); assay: cell-based or functional assay
[2] = biological target: T1, human BTLA (Uniprot Q7Z6A9) expressed …; assay: flow cytometry on huBTLA-overexpressing Expi293 cells, MFI
Protocol: (§1) Expi293 cells stably overexpressing huBTLA were incubated with the chimeric anti-BTLA antibodies 83F2 or 86B7 in PBS containing 0.5% BSA, 1 mM EDTA, and 0.1% sodium azide (FACS buffer) for 30 minutes at 4° C. The cells were washed, and then incubated with 10 nM phycoerythrin (PE) conjugated anti-Human Fc Ab (BioLegend, cat #409304) for 20 minutes at 4° C. Cells were washed and then analyzed by flow cytometry with Attune (ThermoFisher Scientific). Data were analyzed with FlowJo software. Antibody binding is represented as median fluorescence intensity (MFI).
FACS based binding assays of humanized anti-BTLA antibodies were performed as described above in Example 3.

[3] = biological target: T2, huBTLA as coated in the binding ELISA of Example 3 (tag not stated) (human, UniProt Q7Z6A9 31-157); assay: ELISA, huBTLA coated at 0.333 ug/mL, anti-human IgG Fc-AP detection
T2 construct: Detection was with anti-human IgG Fc
T2 sequence: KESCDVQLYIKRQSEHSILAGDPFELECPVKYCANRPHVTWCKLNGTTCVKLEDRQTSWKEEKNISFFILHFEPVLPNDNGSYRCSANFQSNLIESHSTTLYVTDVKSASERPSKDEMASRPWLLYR
Protocol: BTLA binding of purified recombinant chimeric antibodies by ELISA: The huBTLA and rhesus monkey BTLA antigen binding ELISA was performed on the purified recombinant chimeric antibodies. Briefly, 384-well, clear flat bottom high binding plates (Corning, cat #3700) were coated overnight at 4° C. with 0.333 μg/mL of huBTLA or rhesus monkey BTLA in PBS. The following purified process was performed as described in ELISA binding assay in Example 2, except that the secondary antibody was goat anti human IgG Fc-AP (Southern Biotech, cat #2014-04).

[4] = biological target: T1, human BTLA (Uniprot Q7Z6A9) expressed …; assay: flow cytometry on Expi293 cells stably overexpressing huBTLA, PE anti-human Fc
From the text: To examine the binding of the chimeric anti-BTLA antibodies to huBTLA overexpressing cells, Expi293 cells stably overexpressing huBTLA were used to perform FACS analysis. Briefly, the coding sequence of huBTLA (Uniprot, Q7Z6A9) was cloned into a lentiviral vector and the recombinant virus was packaged according to the instruction of the virus packaging kit (Lenti-X™ Packaging Single Shots, Cat #631275, Takada). The Expi293 cells were transduced with the recombinant virus.
as §1

[5] = biological target: T1, human BTLA (Uniprot Q7Z6A9) expressed …; assay: flow cytometry blocking assay on huBTLA-overexpressing Expi293 cells, antibody titrated, soluble human HVEM-mouse IgG2a Fc detected
Protocol: Expi293 cells stably overexpressing huBTLA were incubated with chimeric anti-BTLA antibody 83F2 or 86B7 for 30 minutes at 4° C. The cells were washed, and then incubated with human HVEM-mouse IgG2a Fc recombinant protein (Acro Biosystems, cat #HVM-H5255) at […] concentration for 20 minutes at 4° C. The human HVEM bindings were detected by goat anti-mouse Alexa 488 secondary antibody (ThermoFisher, cat #A-11029). Cells were washed and acquired by flow cytometry with Attune. Data were analyzed with FlowJo software. BTLA binding is represented as MFI.
FACS based blocking assays of humanized anti-BTLA antibodies were performed as described above in Example 3.

EC50 of recovery of IL-2 production, Raji-HVEM/primary human T cell coculture [1]: 1.68 nM | EC50 (read off the curve) [2]: ~0.8 nM | EC50 [3]: 0.0511 nM | EC50 [4]: 0.554 nM | IC50 (read off the curve) [5]: ~0.4 nM
B1: chimeric anti-BTLA antibody 86B7 (antibody, V domains shown)
VH: QVTLKESGPGILQPSQTLSLTCSFSGFSLSTFGMGVSWIRQPSGKGLEWLAHIYWDDDKRFNPSLKSRLSISKDTSNNQVFLKITTVDTADTATYYCARGNWDGETYFDYWGQGTTLTVSS
VL: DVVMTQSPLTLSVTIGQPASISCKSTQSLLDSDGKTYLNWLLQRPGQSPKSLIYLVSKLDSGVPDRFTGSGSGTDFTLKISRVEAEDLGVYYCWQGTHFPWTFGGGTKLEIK
